The text below walks through data of patent publication US20240285759A1 (published 2024).

What all share (experiment): cytokine release
The target in experiment [1] is T1, NRAS wild type (RAS wild type) peptide on HLA-A*01:01 (human).
T1 peptide: ILDTAGQEEY

Experiment [2] deals with T2, NRAS Q61R (RAS Q61R; the filing also names KRAS and HRAS comprising this peptide) peptide on HLA-A*01:01 (human).
T2 peptide: ILDTAGREEY

The target of experiment [3] is T3, NRAS Q61K (RAS Q61K; the filing also names KRAS and HRAS comprising this peptide) peptide on HLA-A*01:01 (human).
T3 peptide: ILDTAGKEEY

B1: TCR2 (TCR, V domains shown)
Valpha: GESVGLHLPTLSVQEGDNSIINCAYSNSASDYFIWYKQESGKGPQFIIDIRSNMDKRQGQRVTVLLNKTVKHLSLQIAATQPGDSAVYFCAENIRLTGANNLFFGTGTRLTVIP
Vbeta: GAVVSQHPSWVICKSGTSVKIECRSLDFQATTMFWYRQFPKQSLMLMATSNEGSKATYEQGVEKDKFLINHASLTLSTLTVTSAHPEDSSFYICSARLLSYEQYFGPGTRLTVT
For the molecule B1, the binding result is listed as “no recognition” in experiment [1] and “recognises” in experiment [2].

B2: TCR1 (TCR, V domains shown)
Valpha: GQQLNQSPQSMFIQEGEDVSMNCTSSSIFNTWLWYKQEPGEGPVLLIALYKAGELTSNGRLTAQFGITRKDSFLNISASIPSDVGIYFCAGRDDAGNMLTFGGGTRLMVKP
Vbeta: GAVVSQHPSRVICKSGTSVKIECRSLDFQATTMFWYRQFPKKSLMLMATSNEGSKATYEQGVEKDKFLINHASLTLSTLTVTSAHPEDSSFYICSASVRMNTEAFFGQGTRLTVV
Consider B2, for which the binding result is “recognises” in experiment [3], “no recognition” in experiment [1] and “recognises” in experiment [2].
